For 1 substance, pull down relative to full-length RPA70 (100%) results are on record in paper doi:10.1101/177840.

For the assay, the target named is His-tagged full-length Ajuba (UniProt Q96IF1). Nature of the assay: pull-down.

Sequence of RPA70-OB½ABC, aa 234-612 (P27694 234-612): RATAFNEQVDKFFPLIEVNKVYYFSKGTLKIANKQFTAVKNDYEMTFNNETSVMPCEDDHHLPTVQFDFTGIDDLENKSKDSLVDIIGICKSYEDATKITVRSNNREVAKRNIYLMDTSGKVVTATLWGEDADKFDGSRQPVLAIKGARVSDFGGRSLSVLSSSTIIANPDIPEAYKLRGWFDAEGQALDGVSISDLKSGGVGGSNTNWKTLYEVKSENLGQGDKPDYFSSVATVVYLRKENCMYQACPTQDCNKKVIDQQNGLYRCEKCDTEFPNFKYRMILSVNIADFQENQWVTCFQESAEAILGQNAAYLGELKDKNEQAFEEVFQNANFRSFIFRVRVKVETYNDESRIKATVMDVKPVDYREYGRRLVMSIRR

As for “RPA70-OB½ABC, aa 234-612 (from UniProt P27694 234-612) (domain or fragment)”, the pull down relative to full-length RPA70 (100%) is 58.7%.
